Data on 18 molecules can be found in US20240376639A1 (ELASMOGEN, published 2024).

The labels stand for the following.
B1: E4V2F3 (VNAR)
VNAR: ASVNQSPSSLSASVGDRVTITCVLTDTNYWYSTSWFRKNPGTTNEDRIIISGRYVESVNNGPKSFTLTISSLQPEDFATYYCRAWTSFEEQVKDVYGGGTKVEIK
notes: Clone from the E4-V2 humanised library
B2: E4V2Ee8 (VNAR)
VNAR: ASVNQSPSSLSASVGDRVTITCVLTGASYWYSTSWFRKNPGTTDEESMSNGGRYVESVNKRPMSFTLTISSLQPEDFATYYCRAWTSFEEQVKDVYGGGTKVEIK
notes: as for B1
B3: E4V2Cc8 (VNAR)
VNAR: ASVNQSPSSLSASVGDRVTITCVLTSAGYLYATSWFRKNPGTSDKESMIIGRRYVESVNNRSMSFTLTISSLQPEDFATYYCRAWTSFEEQVKDVYGGGTKVEIK
notes: as for B1
B4: E4V2Cc9 (VNAR)
VNAR: B1 VNAR with D26G, N28E, W30L, T43P, I48M, I50N, S51G, N60K, P62T, K63M
notes: as for B1
B5: E4V2D10 (VNAR)
VNAR: B2 VNAR with S28G, Y31F, S32A, T43S, E45K, M48I, G51S, P62S
notes: as for B1
B6: E4V2Ee6 (VNAR)
VNAR: B2 VNAR with G26D, A27T, S28R, W30L, S32A, D44N, E45K, M48I, P62S
notes: as for B1
B7: E4V2Gg11 (VNAR)
VNAR: B2 VNAR with A27T, S28R, Y31F, E46D, M48I, K60N, R61G, P62S
notes: as for B1
B8: E4V2B9 (VNAR)
VNAR: B1 VNAR with D26G, N28G, T43S, S51G, N60K, P62T
notes: as for B1
B9: E4 WT (VNAR)
VNAR: ASVNQTPRTATKETGESLTINCVLTDTKYLYSTSWFRKNPGTTDWERMSIGGRYVESVNKGAKSFSLRIKDLTVADSATYICRAWTSFEEQVKDVYGAGTVLTVN
notes: also called pre-humanised parental clone E4 WT; Wt DLL4 VNAR
B10: D3 V2 (VNAR)
VNAR: ASVNQSPSSLSASVGDRVTITCVLTDTSYGLYSTSWFRKNPGTTDWERMSIGGRYVESVNKRAKSFTLTISSLQPEDFATYYCKAQSGMAISTGSGHGYNWYDGAGTKVEIK
notes: Humanised VNAR (soloMER)
B11: P3A1 V1 dimer HisMyc (other)
VNAR 1: TRVDQSPSSLSASVGDRVTITCVLTDTSYGLYSTSWFRKNPGTTDWERMSIGGRYVESVNKGAKSFTLTISSLQPEDFATYYCKAREARHPWLRQWYDGAGTKVEIK
VNAR 2: B11 VNAR 1
modifications: In the real molecule the two VNAR copies form one polypeptide, joined by an unprinted short peptide linker and carrying a HisMyc tag. They are given here as two separate chains because the linker letters are unknown.
notes: 2x P3A1 V1 joined with a short peptide linker, with a HisMyc tag; expressed in bacteria; not shown: The short peptide linker joining the two P3A1 V1 copies and the HisMyc tag
B12: P3A1 WT dimer HisMyc (other)
VNAR 1: TRVDQTPRTATKETGESLTINCVLTDTSYGLYSTSWFRKNPGTTDWERMSIGGRYVESVNKGAKSFSLRIKDLTVADSATYYCKAREARHPWLRQWYDGAGTVLTVN
VNAR 2: B12 VNAR 1
modifications: In the real molecule the two VNAR copies form one polypeptide, joined by an unprinted short peptide linker and carrying a HisMyc tag. They are given here as two separate chains because the linker letters are unknown.
notes: VNAR dimer in one chain; also called parental WT clone P3A1; WT non-humanised P3A1 clone; not shown: The short peptide linker joining the two P3A1 copies and the HisMyc tag
B13: D3 V4 (VNAR)
VNAR: B10 VNAR with F37Y, R38Q, K39Q, N40K
notes: Humanised VNAR (soloMER)
B14: D3 V5 (VNAR)
VNAR: B10 VNAR with F37Y, R38Q, K39Q, N40K, Y55F, V56S, E57G, V59G, N60S
notes: Humanised VNAR (soloMER)
B15: 78WT (VNAR)
VNAR: TRVDQTPRTATKETGESLTINCVLTDTNYSLYATSWFRKNPGTTDWERMSIGGRYVESVNKGAKSFSLRIKDLTVADSATYICRAVWFPYFISDMWDVYGAGTVLTVN
notes: Parental non-humanised VNAR 78; also called native (WT) anti-DLL4 VNAR 78
B16: 78-V3 (VNAR)
VNAR: TRVDQSPSSLSASVGDRVTITCVLTDTNYSLYATSWYQQKPGKTDWERMSIGGRYVESVNKGAKSFTLTISSLQPEDFATYYCRAVWFPYFISDMWDVYGGGTKVEIK
notes: Humanised VNAR (soloMER), poly-histidine tagged, expressed in E. coli; also called soloMER 78 variant V3
B17: 78-V5 (VNAR)
VNAR: B16 VNAR with Y55F, V56S, E57G, V59G, N60S
notes: Humanised VNAR (soloMER), poly-histidine tagged, expressed in E. coli; also called soloMER 78 variant V5
B18: 78-V4 (VNAR)
VNAR: B16 VNAR with Y37F, Q38R, Q39K, K40N, K43T, Y55F, V56S, E57G, V59G, N60S
notes: Humanised VNAR (soloMER), poly-histidine tagged, expressed in E. coli; also called soloMER 78 variant V4

For orientation: Kd means the concentration at which binding is half-saturated. The low end stands for a tighter complex, the high end for a looser complex. As usually defined, the koff is the rate constant with which the complex falls apart. A low value points to a long-lived complex. For orientation: kon means the rate constant with which the complex forms. A lower kon goes with slow association.

Changes are numbered by the printed parent chain.

T1 sequence (Q9NR61 27-524 limits assumed): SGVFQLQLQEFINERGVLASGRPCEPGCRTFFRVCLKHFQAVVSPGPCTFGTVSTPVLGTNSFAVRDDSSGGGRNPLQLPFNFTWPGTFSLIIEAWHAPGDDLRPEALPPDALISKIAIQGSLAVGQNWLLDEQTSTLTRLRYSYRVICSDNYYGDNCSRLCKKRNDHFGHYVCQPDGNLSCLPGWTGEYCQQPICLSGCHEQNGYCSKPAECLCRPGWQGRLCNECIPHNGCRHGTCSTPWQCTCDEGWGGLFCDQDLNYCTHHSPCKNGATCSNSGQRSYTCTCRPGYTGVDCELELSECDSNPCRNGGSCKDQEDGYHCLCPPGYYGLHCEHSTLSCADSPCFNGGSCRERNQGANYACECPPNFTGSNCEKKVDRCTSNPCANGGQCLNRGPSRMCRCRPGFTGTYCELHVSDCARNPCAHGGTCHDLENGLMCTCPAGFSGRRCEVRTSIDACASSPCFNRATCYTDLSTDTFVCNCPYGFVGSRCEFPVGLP
Chain of hDLL4-Fc (Q9NR61 27-524 limits assumed): as above

One test concerns the target T1, human DLL4 (human, UniProt Q9NR61 27-524, limits assumed).
T1 construct: Antigen of the monoclonal phage ELISA; also called hDLL4
Put plainly: monoclonal phage ELISA on hDLL4, with HSA as control antigen, OD450.
On to B1, for which the binding result is given as “binds”. Same read-out and setting: to B2 belongs “binds”; to B3, “binds”; to B4, “binds”. Still for that read-out and setting: the value for B5 was “binds”; that for B6 was “binds”; that for B7 was “binds”. For the molecule B8, the binding result is listed as “binds”. Still for that read-out and setting: to B9 belongs “binds”.

The target of a further test is T2, human ROR1 (human, UniProt Q01973 30-403, limits assumed).
T2 construct: The general ELISA protocol coats hROR1-Fc; also called hROR1; huROR1
T2 sequence (Q01973 30-403 limits assumed): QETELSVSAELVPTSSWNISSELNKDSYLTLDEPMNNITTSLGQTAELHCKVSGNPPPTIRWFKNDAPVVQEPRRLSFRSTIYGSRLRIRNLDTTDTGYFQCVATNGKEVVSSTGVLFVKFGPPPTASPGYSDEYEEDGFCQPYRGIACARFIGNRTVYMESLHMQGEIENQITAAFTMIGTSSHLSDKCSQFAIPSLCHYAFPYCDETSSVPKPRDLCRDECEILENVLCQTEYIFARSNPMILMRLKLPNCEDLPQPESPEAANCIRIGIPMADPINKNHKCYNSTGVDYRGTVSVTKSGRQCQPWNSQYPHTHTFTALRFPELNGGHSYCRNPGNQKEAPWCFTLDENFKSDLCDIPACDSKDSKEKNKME
Put plainly: kinetics against hROR1; method not named in the table (kdis heading as in the BLI table).
The molecule B10 gave a Kd of 15.6 nM, a koff of 0.0238 s⁻¹ and a kon of 1.52e+06 M⁻¹ s⁻¹.

The target of a further test is T2, human ROR1. The experiment in a line: BIAcore (SPR). (SPR reads the build-up and loss of mass on a sensor chip optically.)
On to B11, for which the Kd came to 0.179 nM. Same read-out and setting: the value for B12 was 0.302 nM.

In the next test the target is T3, Human Serum Albumin (human, UniProt P02768 25-609).
T3 construct: Non-target control antigen in the ELISAs; also called HSA
Put plainly: monoclonal phage ELISA, HSA as control antigen, OD450. In general terms: In an ELISA, binding on a coated surface is turned into a signal by an enzyme label.
In the case of B1, the binding result is recorded as “no binding”.

As for B2, the binding result is “no binding”. Same read-out and setting: to B3 belongs “no binding”; to B4, “no binding”; to B5, “no binding”. As for B6, the binding result was “no binding”.

Turning to B7, the binding result is recorded as “no binding”.

Regarding B9, the binding result is “no binding”.

The next test has as its target T2, human ROR1. Put plainly: BLI against hROR1.
The molecule B10 had a Kd of 18.9 nM and a kon of 1.85e+06 M⁻¹ s⁻¹. In the same order, the values of B13 are 58.5 nM and 1.38e+06 M⁻¹ s⁻¹. The molecule B14 yielded a Kd of 36.2 nM.

The next test has as its target hDLL4-Fc (human, UniProt Q9NR61 27-524, limits assumed). The experiment in a line: direct binding ELISA on 1 µg/mL coated hDLL4-Fc, protein input unquantified, detection with anti-poly-histidine-HRP.
B15: the binding result was “binds”. Still for that read-out and setting: the value for B16 was “binds”; that for B17 was “binds”. The same measure, in the same setting: to B18 belongs “binds”; to B9, “binds”.
